Source: US5432264A (priority 1987, dated 1995)
Where two headings read alike, the source gives them in different places. Peptide text beside a SMILES is read from it. * marks the point of attachment. Cbz = O=C(OCc1ccccc1)*; CHN2 = [N-]=[N+]=C*

B1: 3-des-OH-cystatin C: Recombinant 120 amino acid human cystatin C with non-hydroxylated Pro at position 3, expressed in E. coli (protein, UniProt P01034 27-146, looked up)
Cystatin-C: SSPGKPPRLVGGPMDASVEEEGVRRALDFAVGEYNKASNDMYHSRALQVVRARKQIVAGVNYFLDVELGRTTCTKTQPNLDNCPFHDQPHLKRKAFCSFQIYAVPWQGTMTLSKSTCQDA
modifications: non-hydroxylated Pro3
notes: Recombinant 120 amino acid human cystatin C with non-hydroxylated Pro at position 3, expressed in E. coli
B2: human cystatin C: Native cystatin C isolated from human urine; mixture of 3-OH-Pro form and 3-des-OH form (protein, UniProt P01034 27-146, looked up)
Cystatin-C: B1 Cystatin-C

How the values were obtained:
[1] = system: poliovirus (Mahoney strain); assay type: cell-based, poliovirus type 1; details: for effect on poliovirus replication (in words): inhibitor added to cultivation medium; for Virus Yield: poliovirus type 1, multiplicity 1, 48 hrs at 37° C.
[2] = system: HSV type 1 (F strain); assay type: cell-based; details: for Virus Yield: 48 hrs at 37° C.
[3] = system: herpes simplex virus type 1 (HSV); assay type: cell-based
[4] = system: poliovirus type 1; assay type: cell-based; details: 24 μg per disc, green monkey kidney cells infected with poliovirus type 1
[5] = molecular target: dipeptidyl peptidases I (F.C 3.4.14.1); experiment: Equilibrium constant for dissociation of inhibitor-enzyme complex, dipeptidyl peptidase I; assay type: binding
Description: (§1) Biological activity of 3-des-OH-cystatin C was determined through titration against concentration determined papain. The strength of binding 3-des-OH-cystatin on the cystein proteinases papain (EC 3.4.22.2), cathepsin B (EC 3.4.22.1) and dipeptidyl peptidases I (F.C 3.4.14.1) was determined. The equilibrium constant for dissociation of 3-des-OH-cystatinC enzyme complex (0.005 nM, 0.50 nM and 3.1 nM) was within the experimental error limit identical with the equilibrium constant for human cystatin C enzyme complex (<0.005 nM, 0.27 nM and 6.3 nM For papan, cathepsin B and dipeptidyl peptidases I, respectively).

[6] = molecular target: cathepsin B (EC 3.4.22.1); experiment: Equilibrium constant for dissociation of inhibitor-enzyme complex, cathepsin B; assay type: binding
Description: as §1

[7] = system: papain; experiment: Papain-inhibiting capacity by titration of active papain, substrate Z-Phe-Arg-NHMec; assay type: biochemical; details: papain-inhibiting capacity relative to molar cystatin C concentration; range over several preparations
Description: The papain-inhibiting capacity of recombinant 3-des-OH-cystatin C was compared with the corresponding activity of human cystatin C.
The human cystatin C was isolated from urine of patients with mixed glomerular-tubular proteinuria by ultrafiltration, ion-exchange chromatography and gel filtration as described in literature (ref. 2,3) and lyophilized. A total of ten different preparations of human cystatin C and 3-des-OH-cystatin C were tested for their cystein proteinase inhibitory capacity. The cystatin C and 3-des-OH-cystatin C preparations derived from human urine and recombinant technique, respectively, were individually dissolved in 0.15 mol/l ammonium bicarbonate. Cystatin C concentrations of the resulting solutions were determined by phys-ico-chemical and immuno-diffusion and quantitation of amino acids released at hydrolysis in 6 mol/l HCl). The cysteine proteinase inhibiting capacities of these solutions were determined by adding them to a solution of isolated papain (cf. ref. 4), a plant cysteine proteinase widely used as a model for cysteine proteinases in general, and then determining the residual proteolytic activity of the resulting mixtures.
The cysteine proteinase activities of the papain solution and the cystatin C-papain mixtures were determined using the fluorogenic substrate Z-Phe-Arg-NHMec (ref. 5). […]

Row | Molecule | effect on poliovirus replication (in words) [1] | Virus Yield ([1]; 0.4 mM Z-LVG-CHN2 in 1% DMSO) | inhibition of HSV replication [2] | Virus Yield [2] | inhibition of plaque formation around disc [3] | inhibition of plaque formation around disc [4] | Virus Yield ([1]; 0.10 mM cystatin C in MEM) | Kd [5] [nM] | Kd [6] [nM] | effect on HSV replication (in words) [2] | molar inhibitory capacity [7]
1 | CC(C)C[C@H](NC(=O)OCc1ccccc1)C(=O)N[C@H](C(=O)NCC(=O)C=[N+]=[N-])C(C)C [Z-LVG-CHN2, N-benzyloxycarbonyl-leucyl-valyl-glycine diazomethyl ketone, reference compound] (Cbz-Leu-Val-Gly-CHN2) | hardly significant | 4.8 × 10^7 pfu/ml | > 99.9 | 1.4 × 10^3 | marked inhibition zones | no inhibition of plaque formation | – | – | – | – | –
2 | B1 | no influence on the replication of poliovirus | – | – | 2.4 × 10^3 | – | – | 1.1 × 10^8 pfu/ml | 3.1 | 0.5 | potent inhibitor of HSV replication | 83-98%
3 | B2 | – | – | – | – | – | – | – | 6.3 | 0.27 | – | 5-55%
